Reference: US20240002498A1 (TENEOBIO, published 2024)

How the values were obtained:
[1] = biological target: T1, human Folate Receptor Alpha (FOLR1) on cells (human, UniProt P15328 25-234); test: cell binding, IGROV-1 cells
T1 construct: whole, on cells; Endogenous on IGROV-1, OVCAR-3, SKOV-3, HT-29 cells; transfected on CHO cells; the cell is named under assay; also called FRα; FRa

[2] = biological target: T1, human Folate Receptor Alpha (FOLR1) on …; test: cell binding, OVCAR-3 cells
[3] = biological target: T1, human Folate Receptor Alpha (FOLR1) on …; test: flow cytometry, IGROV-1 cells
recombinant human FOLR1 = recombinant human FOLR1 (human, UniProt P15328 25-234); test: BLI, Octet QK-384, recombinant human FOLR1
Sequence of recombinant human FOLR1 (P15328 25-234 limits assumed): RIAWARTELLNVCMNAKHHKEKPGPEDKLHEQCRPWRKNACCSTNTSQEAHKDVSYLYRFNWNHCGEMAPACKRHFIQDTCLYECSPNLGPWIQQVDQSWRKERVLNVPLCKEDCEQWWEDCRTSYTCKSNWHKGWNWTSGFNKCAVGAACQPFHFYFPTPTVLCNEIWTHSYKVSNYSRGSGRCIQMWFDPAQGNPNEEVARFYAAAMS
Experimental: As used herein, the “Kd” or “Kd value” refers to a dissociation constant determined by BioLayer Interferometry, using an Octet QK384 instrument (Fortebio Inc., Menlo Park, CA) in kinetics mode. For example, anti-mouse Fc sensors are loaded with mouse-Fc fused antigen and then dipped into antibody-containing wells to measure concentration dependent association rates (kon). Antibody dissociation rates (koff) are measured in the final step, where the sensors are dipped into wells containing buffer only. The Kd is the ratio of koff/kon. (For further details see, Concepcion, J, et al., Comb Chem High Throughput Screen, 12 (8), 791-800, 2009).
Table 17 summarizes affinity and epitope bin information for anti-FOLR1 heavy chain antibodies (HCAbs). Column 1 indicates the clone ID of the HCAb. Column 2 indicates the affinity of the HCAb to recombinant human FOLR1 as measured by Bio-layer interferometry (BLI) using an Octet QK-384. Column 3 indicates the epitope bin of HCAb as determined by a competition BLI binding experiment using an Octet QK-384.

cyno FOLR1 on CHO cells [4] = biological target: T2, cyno FOLR1 on CHO cells (cyno (Cynomolgus macaque), UniProt A0A2K5U044 25-234); test: cell binding, CHO cells stably expressing cyno FOLR1
T2 construct: whole, on cells; also called cyFOLR1
T2 sequence (A0A2K5U044 entry or part of it): as the sequence (P15328 25-234 limits assumed) above, with I2T, W4R, R37K, A146P, H171Y counted along it

[5] = biological target: T1, human Folate Receptor Alpha (FOLR1) on …; test: cell binding, CHO cells stably expressing human FOLR1
cyno FOLR1 on CHO cells [6] = biological target: T2, cyno FOLR1 on CHO cells; test: flow cytometry, CHO cells stably expressing cyno FOLR1
[7] = biological target: T1, human Folate Receptor Alpha (FOLR1) on …; test: flow cytometry, CHO cells stably expressing human FOLR1
CHO_huFOLR2 = biological target: T3, CHO_huFOLR2 (human, UniProt P14207); test: flow cytometry on CHO cells stably expressing human FOLR2, MFI fold over background
T3 construct: stably expressed on CHO cells; also called human FOLR2 on CHO cells; folate receptor beta
T3 sequence (P14207 17-230 limits assumed): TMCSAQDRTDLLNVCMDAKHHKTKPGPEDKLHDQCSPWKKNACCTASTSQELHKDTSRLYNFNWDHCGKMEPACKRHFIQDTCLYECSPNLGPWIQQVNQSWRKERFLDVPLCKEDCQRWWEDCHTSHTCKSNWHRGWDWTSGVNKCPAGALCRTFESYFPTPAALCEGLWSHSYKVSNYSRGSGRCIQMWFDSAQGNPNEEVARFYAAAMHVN
Experimental: Anti-FOLR1 HCAb binding to CHO cells stably expressing human FOLR2 (also known as folate receptor beta, FRβ), and CHO cells stably expressing human IZUMO1R (also known as folate receptor delta, FOLR4, FRδ, JUNO) was analyzed for a number of different clones. Data are presented in FIG. 2, panels A-B, as MFI fold over background. Insets show binding of positive control anti-FOLR2 and anti-IZUMO1R antibodies, respectively, in dark grey, compared to the respective isotype control in light grey.

mouse FOLR1 on CHO cells = biological target: T4, mouse FOLR1 on CHO cells (mouse, UniProt P35846 25-232); test: cell binding, CHO cells stably expressing mouse FOLR1
T4 construct: whole, on cells; also called msFOLR1
T4 sequence (P35846 25-232): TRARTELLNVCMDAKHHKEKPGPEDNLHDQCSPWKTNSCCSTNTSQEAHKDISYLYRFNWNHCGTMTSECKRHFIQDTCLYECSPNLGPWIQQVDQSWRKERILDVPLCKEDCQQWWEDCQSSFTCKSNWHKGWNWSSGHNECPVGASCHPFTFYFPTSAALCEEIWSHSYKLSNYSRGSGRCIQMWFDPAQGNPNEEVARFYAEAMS

[8] = biological target: T5, FOLR3 (folate receptor gamma) (UniProt P41439 23-245, limits assumed); test: BLI (Octet)
T5 construct: also called FRγ
T5 sequence (P41439 23-245 limits assumed): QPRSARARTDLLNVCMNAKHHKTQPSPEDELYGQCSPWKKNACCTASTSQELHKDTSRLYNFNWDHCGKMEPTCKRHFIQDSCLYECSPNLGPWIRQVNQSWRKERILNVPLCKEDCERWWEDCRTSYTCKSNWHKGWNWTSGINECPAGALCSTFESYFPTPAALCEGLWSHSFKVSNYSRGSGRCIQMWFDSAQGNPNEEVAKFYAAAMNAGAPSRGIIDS

T1 sequence (P15328 25-234): as the sequence (P15328 25-234 limits assumed) above

Binder	EC50 [1] [nM]	EC50 [2] [nM]	fold over background MFI [3] [fold over background]	Kd (recombinant human FOLR1) [nM]	EC50 (cyno FOLR1 on CHO cells [4]) [nM]	EC50 [5] [nM]	fold over background MFI (cyno FOLR1 on CHO cells [6]) [fold over background]	fold over background MFI [7] [fold over background]	binding result (CHO_huFOLR2)	EC50 (mouse FOLR1 on CHO cells) [nM]	binding result [8]
anti-FOLR1 heavy chain antibody (HCAb, UniAb) clone ID 352391 (antibody, V domains shown, Heavy chain-only antibody (no light chain), F18 family) VH: EVQLVESGGGLVQPGGSLRLSCAASGFSFSSYSMKWVRQAPGKGLEWVSYISSSSDTIEYADSVKGRFTISRDNAKNSLYLQMNSLRDEDTAVYYCASVGLDFDYRGQGTLVTVSS	2.8	2.8	646	34.8	2.7	5.5	198	944	no binding (tested: 100 nM)		
anti-FOLR1 heavy chain antibody (HCAb, UniAb) clone ID 352365 (antibody, V domains shown, Heavy chain-only antibody (no light chain), F18 family) VH: EVQLVESGGGLVQPGGSLRLSCAASGFSFSSYSMKWVRQAPGKGLEWVSYISSSSSTIEYADSVKGRFTISRDNAKNSLYLQMNSLRDEDTAVYYCATVGLDFDYRGQGTLVTVSS	4.6		594	125	3.3	3.8	97.4	906	no binding (tested: 100 nM)		
anti-FOLR1 heavy chain antibody (HCAb, UniAb) clone ID 352491 (antibody, V domains shown, Heavy chain-only antibody (no light chain), F18 family) VH: EVQLVESGGGLVQPGGSLRLSCAASGFSFSSYSMKWVRQAPGKGLEWVSYISSSSDTIEYAGSVKGRFTISRDNAKNSLYLQMNSLRDEDTAVYYCASVGLDFDYRGQGTLVTVSS	5	3.3	1640	37.4	2.1	4.3	159	1480	no binding (tested: 100 nM)		
anti-FOLR1 heavy chain antibody (HCAb, UniAb) clone ID 352672 (antibody, V domains shown, Heavy chain-only antibody (no light chain), F18 family) VH: EVQLVESGGGLVQPGGSLRLSCAASGFSFSSYSMKWVRQAPGKGLEWVSYISRSSDTIEYADSVKGRFTISRDNAKNSLYLQMNSLRDEDTAVYYCATVGLDFDYRGQGTLVTVSS	8.8	6.3	2300	36	2.9	5.9	623	1070	no binding (tested: 100 nM)		
anti-FOLR1 heavy chain antibody (HCAb, UniAb) clone ID 352317 (antibody, V domains shown, Heavy chain-only antibody (no light chain), F14 family) VH: EVQLVESGGGLVKPGGSLRLSCAASGFTFSSYSMNWVRQAPGKGLEWVSSISSGSSYIYYADSVKGRFTISRDNAKNSLYLQMNSLRAEDTAVYYCARDVTSGIAAAGSAFNIRGQGTLVTVSS	3.9	3.3	711	8.7	5	5.1	465	1220	binds		
anti-FOLR1 heavy chain antibody (HCAb, UniAb) clone ID 352368 (antibody, V domains shown, Heavy chain-only antibody (no light chain), F14 family) VH: EVQLVESGGGLVKPGGSLRLSCAASGFNFRSFGMTWLRQAPGKGLEWVSSISSGSSYIYYADSVKGRFTISRDNAKNSLYLQMNSLRAEDTAVYYCARDVTSGIAAAGAAFNIRGQGTLVTVSS	4.1	3.1	548	32.9	4.3	3.8	179	1230	binds		
anti-FOLR1 heavy chain antibody (HCAb, UniAb) clone ID 352477 (antibody, V domains shown, Heavy chain-only antibody (no light chain), F14 family) VH: EVQLVESGGGLVKPGGSLRLSCAASGFTFSSYSMNWVRQAPGKGLEWVSSISSGSSYIYYADSVKGRFTISRDNARNSLYLQMNSLRAEDTAVYYCARDVTSGIAAAGSAFNIRGQGTLVTVSS	5	2.4	1960	12.5	4.2	4.2	362	1590	binds		
anti-FOLR1 heavy chain antibody (HCAb, UniAb) clone ID 358433 (antibody, V domains shown, Heavy chain-only antibody (no light chain), F14 family) VH: EVQLVESGGGLVKPGGSLRLSCAASGFIFSSYSMNWVRQAPGKGLEWVSSISSGSSYIYYADSVKGRFTISRDNAKNSLYLQMNSLRAEDTAVYYCARDVTSGIAAAGSAFNIRGQGTLVTVSS	4.1	1.3		6.34	3.1	5.9	2530	1980		3.6	
anti-FOLR1 heavy chain antibody (HCAb, UniAb) clone ID 358474 (antibody, V domains shown, Heavy chain-only antibody (no light chain), F14 family) VH: EVQLVESGGGLVKPGGSLRLSCAASGFTFSSYSMNWVRQAPGKGLEWVSSISSGSSYIYYADSVKGRFTISRDNAKNSLYLQMNSLRAEDTAIYYCARDVTSGIAAAGSAFNIRGQGTLVTVSS	4	1.2		7.62	4.3	4	2350	2240		2.6	no binding

Further lines, results first:

EC50 [1] [nM]	EC50 [2] [nM]	fold over background MFI [3] [fold over background]	Kd (recombinant human FOLR1) [nM]	EC50 (cyno FOLR1 on CHO cells [4]) [nM]	EC50 [5] [nM]	fold over background MFI (cyno FOLR1 on CHO cells [6]) [fold over background]	fold over background MFI [7] [fold over background]	binding result (CHO_huFOLR2)	EC50 (mouse FOLR1 on CHO cells) [nM]	binding result [8]	Binder
3.7	32.6	1790	81.1	5.7	5.4	84.5	816	no binding (tested: 100 nM)			anti-FOLR1 heavy chain antibody (HCAb, UniAb) clone ID 352564 (antibody, V domains shown, Heavy chain-only antibody (no light chain), F18 family) VH: EVQLVESGGGLVQPGGSLRLSCAASGFSFSSYSMKWVRQAPGKGLEWVSYITSSSSTIEYADSVKGRFTISRDNAKNSLYLQMNSLRDEDTAVYYCASVGLEFDYRGQGTLVTVSS
3.6	4.9	506	52.7	3.4	4.6	123	1130	no binding (tested: 100 nM)			anti-FOLR1 heavy chain antibody (HCAb, UniAb) clone ID 352372 (antibody, V domains shown, Heavy chain-only antibody (no light chain), F18 family) VH: EVQLVESGGGLVQPGGSLRLSCAASGFSFSSYSMKWVRQAPGKGLEWVSYISSSSDTIEYADSVKGRFTISRDNAKNSLYLQMNSLRDEDTAVYYCASVGLEFDYRGQGTLVTVSS
3.8	1.1	1740	41.8	4.3	3.5	157	1410	no binding (tested: 100 nM)			anti-FOLR1 heavy chain antibody (HCAb, UniAb) clone ID 352496 (antibody, V domains shown, Heavy chain-only antibody (no light chain), F18 family) VH: EVQLVESGGGLVKPGGSLRLSCAASGFSFSSYSMKWVRQAPGKGLEWVSYISSSSDTIEYADSVKGRFTISRDNAKNSLYLQMNSLRDEDTAVYYCASVGLDFDYRGQGTLVTVSS
3.6	1.1		6.82	3	4.6	2520	2080		2.5		anti-FOLR1 heavy chain antibody (HCAb, UniAb) clone ID 358457 (antibody, V domains shown, Heavy chain-only antibody (no light chain), F14 family) VH: EVQLVESGGGLVQPGGSLRLSCAASGFTFSSYSMNWVRQAPGKGLEWVSSISSGSSYIYYADSVKGRFTISRDNAKNSLYLQMNSLRDEDTAVYYCARDVTSGIAAAGSAFNIRGQGTLVTVSS
3.3	1.5		6.78	3.4	4.2	1520	1230		3.2	no binding	anti-FOLR1 heavy chain antibody (HCAb, UniAb) clone ID 358454 (antibody, V domains shown, Heavy chain-only antibody (no light chain), F14 family) VH: EVQLVESGGGLVQPGGSLRLSCAASGFTFSSYSMNWVRQAPGKGLEWVSSISSGSSYIYYADSVKGRFTISRDNAKNSLYLQMNSLRAEDTAVYFCARDVTSGIAAAGSAFNIRGQGTLVTVSS
